The values that follow come from US20230192902A1 (KENJOCKETY BIOTECHNOLOGY, published 2023).

In the test the target is T1, human ABCG2 (human, UniProt Q9UNQ0 1-655).
T1 construct: also called CD388; BCRP
T1 sequence: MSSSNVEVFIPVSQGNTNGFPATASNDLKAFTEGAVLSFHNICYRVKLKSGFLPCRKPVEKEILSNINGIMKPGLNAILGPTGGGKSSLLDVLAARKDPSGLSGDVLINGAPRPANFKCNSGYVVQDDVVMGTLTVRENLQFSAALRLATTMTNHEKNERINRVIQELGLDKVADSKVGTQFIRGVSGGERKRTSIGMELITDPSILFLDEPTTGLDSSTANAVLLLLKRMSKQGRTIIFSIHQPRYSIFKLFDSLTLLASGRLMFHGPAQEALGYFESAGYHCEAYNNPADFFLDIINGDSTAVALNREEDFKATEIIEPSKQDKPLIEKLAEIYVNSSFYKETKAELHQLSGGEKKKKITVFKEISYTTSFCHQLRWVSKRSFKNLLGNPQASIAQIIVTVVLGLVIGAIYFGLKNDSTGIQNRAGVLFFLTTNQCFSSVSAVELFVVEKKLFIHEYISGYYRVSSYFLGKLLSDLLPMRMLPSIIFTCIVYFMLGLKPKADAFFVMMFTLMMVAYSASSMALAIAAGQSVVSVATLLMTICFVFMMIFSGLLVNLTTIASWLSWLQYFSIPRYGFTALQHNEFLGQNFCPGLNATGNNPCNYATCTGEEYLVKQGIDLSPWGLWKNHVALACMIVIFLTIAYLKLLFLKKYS
The test can be described thus: flow cytometry on 293T cells stably expressing human ABCG2. A general note: Flow cytometry measures light scatter and fluorescence of single cells or particles in a stream.

B1: anti-ABCG2 antibody 5D3 (antibody, V domains shown)
VH: QVQLQESGPGLVKPSQSLSLTCTVTGFSITSDYAWNWIRQFPGKKLEWMGYINFDGGTTYNPSLRGRISITRDTSKNQFFLQLRSVTPEDTATYYCATFYGAKGTLDYWGQGTSVTVSS
VL: DIVLTQSPSSFSVSLGDRVTISCKASGYILNRLAWYQQKPGNAPRLLISGATSLETGFPSRFSGTGSGKDYTLSISSLQTEDVGTYYCQQYWSTPWTFGGGTKLEIR
Take B1: the binding result is “binds”.
